Measurements taken from patent US20160361434.

Columns and labels:
FE5Q4 = target: T1, FE5Q4
T1 chain: FWIQE

TGpan = target: T2, TGpan
T2 chain: QG

DH6Q5 = target: T3, DH6Q5
T3 chain: DVYSQH

HH12N11 = target: T4, HH12N11
T4 chain: HDLMWPDVYSNH

FY12Q10 = target: T5, FY12Q10
T5 chain: FPWSSPLKHQEY

CF13Q4 = target: T6, CF13Q4
T6 chain: CYEQHKLPSSWPF

YV10 = target: T7, YV10
T7 chain: YLADTNSLAV

SY10Q8 = target: T8, SY10Q8
T8 chain: SPLKHQEY

CW8Q3 = target: T9, CW8Q3
T9 chain: CDQMMLPW

DH6N5 = target: T10, DH6N5
T10 chain: DVYSNH

HG14Q11 = target: T11, HG14Q11
T11 chain: HDLMWPDVYSQHGG

GS12Q7 = target: T12, GS12Q7
T12 chain: GGSPLAQSHGGS

HH12Q11 = target: T13, HH12Q11
T13 chain: HDLMWPDVYSQH

WG10Q7 = target: T14, WG10Q7
T14 chain: WPDVYSQHGG

CS9Q4 = target: T15, CS9Q4
T15 chain: CYEQHKLPS

[1] = target: BSA-HH12Q11 conjugate, P02769
[2] = target: Bovine serum albumin, P02769
Sequence of Bovine serum albumin, P02769 (P02769 25-607): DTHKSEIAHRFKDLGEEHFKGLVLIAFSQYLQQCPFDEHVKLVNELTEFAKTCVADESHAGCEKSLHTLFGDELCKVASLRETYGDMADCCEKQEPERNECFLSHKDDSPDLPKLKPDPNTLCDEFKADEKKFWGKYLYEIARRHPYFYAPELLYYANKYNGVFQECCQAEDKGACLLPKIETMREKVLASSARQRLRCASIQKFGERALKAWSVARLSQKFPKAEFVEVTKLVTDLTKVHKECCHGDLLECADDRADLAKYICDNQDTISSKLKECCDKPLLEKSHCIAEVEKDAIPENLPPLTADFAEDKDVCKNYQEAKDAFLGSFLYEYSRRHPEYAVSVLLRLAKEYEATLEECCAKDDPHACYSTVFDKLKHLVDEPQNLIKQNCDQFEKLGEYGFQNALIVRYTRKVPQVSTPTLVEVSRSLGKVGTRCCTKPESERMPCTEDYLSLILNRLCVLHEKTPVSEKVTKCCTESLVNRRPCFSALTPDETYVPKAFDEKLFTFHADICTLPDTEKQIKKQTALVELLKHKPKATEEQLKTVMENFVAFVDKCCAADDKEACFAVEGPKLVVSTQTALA

Sequence of BSA-HH12Q11 conjugate, P02769 (P02769 25-607): as above

B1: Recombinant human transglutaminase 2 (hTG2) (protein)
chain: MAEELVLERCDLELETNGRDHHTADLCREKLVVRRGQPFWLTLHFEGRNYEASVDSLTFSVVTGPAPSQEAGTKARFPLRDAVEEGDWTATVVDQQDCTLSLQLTTPANAPIGLYRLSLEASTGYQGSSFVLGHFILLFNAWCPADAVYLDSEEERQEYVLTQQGFIYQGSAKFIKNIPWNFGQFEDGILDICLILLDVNPKFLKNAGRDCSRRSSPVYVGRVVSGMVNCNDDQGVLLGRWDNNYGDGVSPMSWIGSVDILRRWKNHGCQRVKYGQCWVFAAVACTVLRCLGIPTRVVTNYNSAHDQNSNLLIEYFRNEFGEIQGDKSEMIWNFHCWVESWMTRPDLQPGYEGWQALDPTPQEKSEGTYCCGPVPVRAIKEGDLSTKYDAPFVFAEVNADVVDWIQQDDGSVHKSINRSLIVGLKISTKSVGRDEREDITHTYKYPEGSSEEREAFTRANHLNKLAEKEETGMAMRIRVGQSMNMGSDFDVFAHITNNTAEEYVCRLLLCARTVSYNGILGPECGTKYLLNLNLEPFSEKSVPLCILYEKYRDCLTESNLIKVRALLVEPVINSYLLAERDLYLENPEIKIRILGEPKQKRKLVAEVSLQNPLPVALEGCTFTVEGAGLTEEQKTVEIPDPVEAGEEVKVRMDLLPLHMGLHKLVVNFESDKLKAVKGFRNVIIGPA
TG2-mediated incorporation of biotin-cadaverine into plate-coupled peptide (A450) (FE5Q4): none of the other peptides react with the enzyme and cannot be used as substrate for TG2 | TG2-mediated incorporation of biotin-cadaverine into plate-coupled peptide (A450) (TGpan): TGpan is good substrate for TG2 confirming its specificity to this enzyme | TG2-mediated incorporation of biotin-cadaverine into plate-coupled peptide (A450) (DH6Q5): none of the other peptides react with the enzyme and cannot be used as substrate for TG2 | TG2-mediated incorporation of biotin-cadaverine into plate-coupled peptide (A450) (HH12N11): none of the other peptides react with the enzyme and cannot be used as substrate for TG2 | TG2-mediated incorporation of biotin-cadaverine into plate-coupled peptide (A450) (FY12Q10): none of the other peptides react with the enzyme and cannot be used as substrate for TG2 | TG2-mediated incorporation of biotin-cadaverine into plate-coupled peptide (A450) (CF13Q4): none of the other peptides react with the enzyme and cannot be used as substrate for TG2 | TG2-mediated incorporation of biotin-cadaverine into plate-coupled peptide (A450) (YV10): none of the other peptides react with the enzyme and cannot be used as substrate for TG2 | TG2-mediated incorporation of biotin-cadaverine into plate-coupled peptide (A450) (SY10Q8): none of the other peptides react with the enzyme and cannot be used as substrate for TG2 | TG2-mediated incorporation of biotin-cadaverine into plate-coupled peptide (A450) (CW8Q3): none of the other peptides react with the enzyme and cannot be used as substrate for TG2 | TG2-mediated incorporation of biotin-cadaverine into plate-coupled peptide (A450) (DH6N5): none of the other peptides react with the enzyme and cannot be used as substrate for TG2 | TG2-mediated incorporation of biotin-cadaverine into plate-coupled peptide (A450) (HG14Q11): none of the other peptides react with the enzyme and cannot be used as substrate for TG2 | TG2-mediated incorporation of biotin-cadaverine into plate-coupled peptide (A450) (GS12Q7): none of the other peptides react with the enzyme and cannot be used as substrate for TG2 | TG2-mediated incorporation of biotin-cadaverine into plate-coupled peptide (A450) (HH12Q11): HH12Q11 show less reactivity with TG2 than mTG | TG2-mediated incorporation of biotin-cadaverine into plate-coupled peptide (A450) (WG10Q7): none of the other peptides react with the enzyme and cannot be used as substrate for TG2 | TG2-mediated incorporation of biotin-cadaverine into plate-coupled peptide (A450) (CS9Q4): none of the other peptides react with the enzyme and cannot be used as substrate for TG2

B2: Recombinant microbial transglutaminase (mTG) (protein)
chain: DSDDRVTPPAEPLDRMPDPYRPSYGRAETVVNNYIRKWQQVYSHRDGRKQQMTEEQREWLSYGCVGVTWVNSGQYPTNRLAFASFDEDRFKNELKNGRPRSGETRAEFEGRVAKESFDEEKGFQRAREVASVMNRALENAHDESAYLDNLKKELANGNDALRNEDARSPFYSALRNTPSFKERNGGNHDPSRMKAVIYSKHFWSGQDRSSSADKRKYGDPDAFRPAPGTGLVDMSRDRNIPRSPTSPGEGFVNFDYGWFGAQTEADADKTVWTHGNHYHAPNGSLGAMHVYESKFRNWSEGYSDFDRGAYVITFIPKSWNTAPDKVKQGWP
mTG-mediated incorporation of biotin-X-cadaverine into plate-coupled peptide (A450) (FE5Q4): found to be good substrate for mTG with better reactivity of the peptides FE5Q4 and HH12Q11 | mTG-mediated incorporation of biotin-X-cadaverine into plate-coupled peptide (A450) (TGpan): showed low reactivity to mTG in comparison with the other peptides | mTG-mediated incorporation of biotin-X-cadaverine into plate-coupled peptide (A450) (DH6Q5): Peptides FE5Q4, HH12Q11 and DH6Q7 were found to be good substrate for mTG | mTG-mediated incorporation of biotin-X-cadaverine into plate-coupled peptide (A450) (HH12N11): no reactivity of the mTG was observed | mTG-mediated incorporation of biotin-X-cadaverine into plate-coupled peptide (A450) (FY12Q10): The other peptides listed in table 1 didn't show any reactivity with mTG | mTG-mediated incorporation of biotin-X-cadaverine into plate-coupled peptide (A450) (CF13Q4): The other peptides listed in table 1 didn't show any reactivity with mTG | mTG incorporation of biot-cad into coated conjugate (A450) [1]: a good incorporation of biot-cad was obtained with BSA-HH12Q11 conjugate | mTG incorporation of biot-cad into coated protein (A450) [2]: no reactivity with free BSA | mTG-mediated incorporation of biotin-X-cadaverine into plate-coupled peptide (A450) (SY10Q8): The other peptides listed in table 1 didn't show any reactivity with mTG | mTG-mediated incorporation of biotin-X-cadaverine into plate-coupled peptide (A450) (CW8Q3): The other peptides listed in table 1 didn't show any reactivity with mTG | mTG-mediated incorporation of biotin-X-cadaverine into plate-coupled peptide (A450) (DH6N5): The other peptides listed in table 1 didn't show any reactivity with mTG | mTG-mediated incorporation of biotin-X-cadaverine into plate-coupled peptide (A450) (GS12Q7): showed low reactivity to mTG in comparison with the other peptides | mTG-mediated incorporation of biotin-X-cadaverine into plate-coupled peptide (A450) (HH12Q11): found to be good substrate for mTG with better reactivity of the peptides FE5Q4 and HH12Q11 | mTG-mediated incorporation of biotin-X-cadaverine into plate-coupled peptide (A450) (CS9Q4): The other peptides listed in table 1 didn't show any reactivity with mTG
